The record followed here is PMC2276247.

The target in the assay is Recombinant histidine-tagged human WRN (human) (UniProt Q14191).
Recombinant histidine-tagged human WRN (human), sequence (Q14191 whole entry): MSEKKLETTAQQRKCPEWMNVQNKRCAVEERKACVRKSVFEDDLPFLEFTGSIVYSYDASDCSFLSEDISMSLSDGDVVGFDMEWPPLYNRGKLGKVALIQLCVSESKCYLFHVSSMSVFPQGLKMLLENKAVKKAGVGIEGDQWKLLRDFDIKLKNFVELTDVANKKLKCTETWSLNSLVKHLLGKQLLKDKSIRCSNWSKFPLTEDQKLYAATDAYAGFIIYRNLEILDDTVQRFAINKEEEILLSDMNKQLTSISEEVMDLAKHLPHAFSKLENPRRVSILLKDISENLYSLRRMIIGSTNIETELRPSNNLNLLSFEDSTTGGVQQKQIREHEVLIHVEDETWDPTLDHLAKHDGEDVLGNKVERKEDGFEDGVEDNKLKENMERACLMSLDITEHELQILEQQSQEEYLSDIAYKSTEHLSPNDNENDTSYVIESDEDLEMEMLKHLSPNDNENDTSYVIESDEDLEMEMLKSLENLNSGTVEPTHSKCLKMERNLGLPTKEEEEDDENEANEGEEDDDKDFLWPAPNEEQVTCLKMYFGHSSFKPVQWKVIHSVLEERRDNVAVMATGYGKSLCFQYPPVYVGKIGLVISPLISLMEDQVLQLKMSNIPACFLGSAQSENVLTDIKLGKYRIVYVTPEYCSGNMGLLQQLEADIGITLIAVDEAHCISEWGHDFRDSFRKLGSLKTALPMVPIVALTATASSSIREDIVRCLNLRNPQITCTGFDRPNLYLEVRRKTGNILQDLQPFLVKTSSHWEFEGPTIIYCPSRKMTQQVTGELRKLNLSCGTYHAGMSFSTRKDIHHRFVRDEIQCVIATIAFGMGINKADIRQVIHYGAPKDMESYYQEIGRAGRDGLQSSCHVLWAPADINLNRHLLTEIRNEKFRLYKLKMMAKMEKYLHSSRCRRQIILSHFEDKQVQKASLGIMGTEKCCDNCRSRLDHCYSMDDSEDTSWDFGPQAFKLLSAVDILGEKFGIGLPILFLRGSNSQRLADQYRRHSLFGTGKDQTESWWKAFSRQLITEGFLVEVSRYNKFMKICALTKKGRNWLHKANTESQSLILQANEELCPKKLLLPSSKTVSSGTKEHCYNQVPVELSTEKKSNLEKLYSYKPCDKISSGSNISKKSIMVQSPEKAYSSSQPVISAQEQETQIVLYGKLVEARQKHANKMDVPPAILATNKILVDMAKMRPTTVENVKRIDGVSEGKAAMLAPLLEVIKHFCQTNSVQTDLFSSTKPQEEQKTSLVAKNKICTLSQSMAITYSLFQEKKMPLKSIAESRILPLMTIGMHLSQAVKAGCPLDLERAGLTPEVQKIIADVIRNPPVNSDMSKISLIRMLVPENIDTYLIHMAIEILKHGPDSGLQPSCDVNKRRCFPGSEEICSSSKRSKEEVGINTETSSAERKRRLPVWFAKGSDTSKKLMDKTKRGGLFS

Consider “recombinant human p300 (histone acetyltransferase enzyme p300), Q09472 1-2414”, for which the WRN helicase activity on a 22 bp forked duplex with p300 in the absence of acetyl CoA, at the highest WRN concentration amounted to 2 fold.
